Measured values: patent US20090130104A1 (University of Pennsylvania, published 2009)

Target: low molecular weight single-chain urokinase plasminogen activator (lmw-scuPA), non-targeted (human, UniProt P00749 164-431)
Experiment: ELISA on plates coated with soluble mouse PECAM
Procedure: The size and homogeneity of purified scFv/uPA-T was analyzed using 12% SDS-PAGE with or without addition of thrombin (150 nM). Conversion to its two-chain derivative was determined in the presence of 50 mM dithiothreitol (DTT). cDNA encoding the extracellular domain of mouse PECAM (amino acids Glu¹⁸-Lys⁵⁹⁰) was obtained by the reverse transcription polymerized chain reaction (RT-PCR) using mouse lung tissue total RNA. A FLAG affinity tag was fused to the N-terminus and subcloned into the BglII and NotI sites in the pMT/Bip vector. Stable cell lines were generated. Soluble mouse PECAM was purified from secreted supernatant using M2 anti-FLAG affinity chromatography. Specific binding of scFv/uPA-T to soluble PECAM was measured by ELISA. Each well within a 96-well plate was coated with 5 μg/ml soluble mouse PECAM protein overnight, the unbound sites were blocked with PBS containing 5% bovine serum albumin (BSA) at 37° C. for 1 h and various dilutions of scFv/uPA-T or WT lmw-scuPA were added for 1 hour. Unbound protein was removed by washing with PBS and 1 μg/ml anti-uPA monoclonal antibody in PBS containing 1% BSA was added. The wells were washed, horseradish peroxidase conjugated anti-mouse IgG was added, the wells washed again, TMB substrate was added and the optical density at 450 nm (OD450) was measured. […]

- binding result: no binding
B1: soluble mouse PECAM, extracellular domain (Glu18-Lys590) with N-terminal FLAG tag (receptor, UniProt Q08481 18-590, looked up, not shown: small tags and cut ends)
chain: EENSFTINSIHMESLPSWEVMNGQQLTLECLVDISTTSKSRSQHRVLFYKDDAMVYNVTSREHTESYVIPQARVFHSGKYKCTVMLNNKEKTTIEYEVKVHGVSKPKVTLDKKEVTEGGVVTVNCSLQEEKPPIFFKIEKLEVGTKFVKRRIDKTSNENFVLMEFPIEAQDHVLVFRCQAGILSGFKLQESEPIRSEYVTVQESFSTPKFEIKPPGMIIEGDQLHIRCIVQVTHLVQEFTEIIIQKDKAIVATSKQSSEAVYSVMAMVEYSGHYTCKVESNRISKASSIMVNITELFPKPKLEFSSSRLDQGELLDLSCSVSGTPVANFTIQKEETVLSQYQNFSKIAEESDSGEYSCTAGIGKVVKRSGLVPIQVCEMLSKPSIFHDAKSEIIKGHAIGISCQSENGTAPITYHLMKAKSDFQTLEVTSNDPATFTDKPTRDMEYQCRADNCHSHPAVFSEILRVRVIAPVDEVVISILSSNEVQSGSEMVLRCSVKEGTSPITFQFYKEKEDRPFHQAVVNDTQAFWHNKQASKKQEGQYYCTASNRASSMRTSPRSSTLAVRVFLAPWKK
notes: range 18-590; Secreted from Drosophila cells (pMT/Bip vector), purified on M2 anti-FLAG; coated on 96-well plates at 5 ug/ml; also called immobilized extracellular domain of mouse PECAM; immobilized mouse PECAM
